According to IntAct's records for PubMed 25416956:

B1: Keratin, type II cytoskeletal 6A (Homo sapiens), P02538 (parent)
chain: MASTSTTIRSHSSSRRGFSANSARLPGVSRSGFSSVSVSRSRGSGGLGGACGGAGFGSRSLYGLGGSKRISIGGGSCAISGGYGSRAGGSYGFGGAGSGFGFGGGAGIGFGLGGGAGLAGGFGGPGFPVCPPGGIQEVTVNQSLLTPLNLQIDPTIQRVRAEEREQIKTLNNKFASFIDKVRFLEQQNKVLETKWTLLQEQGTKTVRQNLEPLFEQYINNLRRQLDSIVGERGRLDSELRGMQDLVEDFKNKYEDEINKRTAAENEFVTLKKDVDAAYMNKVELQAKADTLTDEINFLRALYDAELSQMQTHISDTSVVLSMDNNRNLDLDSIIAEVKAQYEEIAQRSRAEAESWYQTKYEELQVTAGRHGDDLRNTKQEIAEINRMIQRLRSEIDHVKKQCANLQAAIADAEQRGEMALKDAKNKLEGLEDALQKAKQDLARLLKEYQELMNVKLALDVEIATYRKLLEGEECRLNGEGVGQVNISVVQSTVSSGYGGASGVGSGLGLGGGSSYSYGSGLGVGGGFSSSSGRAIGGGLSSVGGGSSTIKYTTTSSSSRKSYKH
partner: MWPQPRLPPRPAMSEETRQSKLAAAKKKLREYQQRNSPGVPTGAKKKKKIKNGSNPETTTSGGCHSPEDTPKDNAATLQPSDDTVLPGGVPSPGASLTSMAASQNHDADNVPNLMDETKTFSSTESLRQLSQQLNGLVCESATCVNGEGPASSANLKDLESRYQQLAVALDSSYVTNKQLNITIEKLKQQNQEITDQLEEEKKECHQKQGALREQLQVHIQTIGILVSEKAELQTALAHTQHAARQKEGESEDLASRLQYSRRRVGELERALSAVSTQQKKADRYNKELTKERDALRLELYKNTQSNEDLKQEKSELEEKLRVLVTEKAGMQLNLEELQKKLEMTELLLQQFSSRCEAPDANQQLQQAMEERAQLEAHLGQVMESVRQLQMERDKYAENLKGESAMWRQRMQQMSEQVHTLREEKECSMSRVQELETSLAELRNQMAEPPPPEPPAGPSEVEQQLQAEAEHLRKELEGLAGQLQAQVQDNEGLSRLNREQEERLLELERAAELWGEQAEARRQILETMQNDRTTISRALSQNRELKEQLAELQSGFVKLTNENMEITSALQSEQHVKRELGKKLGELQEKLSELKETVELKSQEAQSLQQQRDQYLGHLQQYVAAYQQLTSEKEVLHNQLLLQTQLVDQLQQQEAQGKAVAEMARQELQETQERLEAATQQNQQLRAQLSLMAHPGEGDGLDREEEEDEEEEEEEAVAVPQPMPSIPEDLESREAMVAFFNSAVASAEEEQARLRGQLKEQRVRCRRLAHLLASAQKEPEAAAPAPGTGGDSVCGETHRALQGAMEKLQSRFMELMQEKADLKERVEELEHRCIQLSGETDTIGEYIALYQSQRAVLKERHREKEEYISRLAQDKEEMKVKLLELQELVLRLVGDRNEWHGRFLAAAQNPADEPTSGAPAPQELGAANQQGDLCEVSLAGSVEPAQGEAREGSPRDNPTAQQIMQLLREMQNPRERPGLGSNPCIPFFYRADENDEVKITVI
B2: Keratin, type II cytoskeletal 6A (Homo sapiens), P02538 (parent)
chain: B1 chain
partner: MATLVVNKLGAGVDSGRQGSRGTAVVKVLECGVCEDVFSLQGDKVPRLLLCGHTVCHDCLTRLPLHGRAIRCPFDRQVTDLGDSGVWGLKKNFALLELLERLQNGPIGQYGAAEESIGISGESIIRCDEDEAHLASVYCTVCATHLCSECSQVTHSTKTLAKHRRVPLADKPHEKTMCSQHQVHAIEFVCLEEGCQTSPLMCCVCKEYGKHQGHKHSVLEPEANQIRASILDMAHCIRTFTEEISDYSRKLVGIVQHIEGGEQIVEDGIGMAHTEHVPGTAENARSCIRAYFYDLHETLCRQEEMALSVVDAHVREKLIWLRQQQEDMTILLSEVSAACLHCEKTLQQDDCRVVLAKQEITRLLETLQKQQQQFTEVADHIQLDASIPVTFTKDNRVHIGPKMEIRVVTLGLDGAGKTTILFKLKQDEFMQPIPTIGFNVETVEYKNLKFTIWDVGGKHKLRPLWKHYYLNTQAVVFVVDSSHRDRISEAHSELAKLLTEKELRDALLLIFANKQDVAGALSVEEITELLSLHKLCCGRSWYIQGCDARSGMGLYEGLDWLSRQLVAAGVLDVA
B3: Lipopolysaccharide-induced tumor necrosis factor-alpha factor (Homo sapiens), Q99732 (parent)
chain: MSVPGPYQAATGPSSAPSAPPSYEETVAVNSYYPTPPAPMPGPTTGLVTGPDGKGMNPPSYYTQPAPIPNNNPITVQTVYVQHPITFLDRPIQMCCPSCNKMIVSQLSYNAGALTWLSCGSLCLLGCIAGCCFIPFCVDALQDVDHYCPNCRALLGTYKRL
partner: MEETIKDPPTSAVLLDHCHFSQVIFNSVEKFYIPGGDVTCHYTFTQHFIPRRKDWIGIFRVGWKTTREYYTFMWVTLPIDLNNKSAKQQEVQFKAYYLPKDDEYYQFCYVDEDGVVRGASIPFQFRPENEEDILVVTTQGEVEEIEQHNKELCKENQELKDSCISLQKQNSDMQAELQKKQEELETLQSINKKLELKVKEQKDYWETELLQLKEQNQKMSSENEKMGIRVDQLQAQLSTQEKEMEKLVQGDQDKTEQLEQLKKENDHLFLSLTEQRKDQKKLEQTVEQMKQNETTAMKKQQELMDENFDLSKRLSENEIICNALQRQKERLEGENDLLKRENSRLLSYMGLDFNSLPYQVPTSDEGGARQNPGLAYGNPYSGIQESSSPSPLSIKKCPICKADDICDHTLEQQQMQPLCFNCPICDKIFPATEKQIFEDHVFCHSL
B4: EF-hand domain-containing protein 1 (Homo sapiens), Q5JVL4 (parent)
chain: MVSNPVHGLPFLPGTSFKDSTKTAFHRSQTLSYRNGYAIVRRPTVGIGGDRLQFNQLSQAELDELASKAPVLTYGQPKQAPPADFIPAHVAFDKKVLKFDAYFQEDVPMSTEEQYRIRQVNIYYYLEDDSMSVIEPVVENSGILQGKLIKRQRLAKNDRGDHYHWKDLNRGINITIYGKTFRVVDCDQFTQVFLESQGIELNPPEKMALDPYTELRKQPLRKYVTPSDFDQLKQFLTFDKQVLRFYAIWDDTDSMYGECRTYIIHYYLMDDTVEIREVHERNDGRDPFPLLMNRQRVPKVLVENAKNFPQCVLEISDQEVLEWYTAKDFIVGKSLTILGRTFFIYDCDPFTRRYYKEKFGITDLPRIDVSKREPPPVKQELPPYNGFGLVEDSAQNCFALIPKAPKKDVIKMLVNDNKVLRYLAVLESPIPEDKDRRFVFSYFLATDMISIFEPPVRNSGIIGGKYLGRTKVVKPYSTVDNPVYYGPSDFFIGAVIEVFGHRFIILDTDEYVLKYMESNAAQYSPEALASIQNHVRKREAPAPEAESKQTEKDPGVQELEALIDTIQKQLKDHSCKDNIREAFQIYDKEASGYVDRDMFFKICESLNVPVDDSLVKELIRMCSHGEGKINYYNFVRAFSN

Variants of: B1
Settings: with goga2_human GOLGA2, Q08379

effect of a mutation on the interaction | Variant
disrupting interaction | N171K

Variants of: B2
Settings: with tri23_human TRIM23, P36406

effect of a mutation on the interaction | Variant
disrupting interaction | I462S

Variants of: B2
Settings: with tri23_human TRIM23, P36406
Remark: another data set of the same source

effect of a mutation on the interaction | Variant
disrupting interaction | A463P

Variants of: B2
Settings: with tri23_human TRIM23, P36406
Remark: another data set of the same source

effect of a mutation on the interaction | Variant
disrupting interaction | N171K

Variants of: B3
Settings: with caco2_human CALCOCO2, Q13137

effect of a mutation on the interaction | Variant
disrupting interaction | A111G

Variants of: B3
Settings: with caco2_human CALCOCO2, Q13137
Remark: another data set of the same source

effect of a mutation on the interaction | Variant
disrupting interaction | G112S

Variants of: B4
Settings: with itf2_human TCF4, P15884
Sequence of itf2_human TCF4, P15884 (P15884 whole entry): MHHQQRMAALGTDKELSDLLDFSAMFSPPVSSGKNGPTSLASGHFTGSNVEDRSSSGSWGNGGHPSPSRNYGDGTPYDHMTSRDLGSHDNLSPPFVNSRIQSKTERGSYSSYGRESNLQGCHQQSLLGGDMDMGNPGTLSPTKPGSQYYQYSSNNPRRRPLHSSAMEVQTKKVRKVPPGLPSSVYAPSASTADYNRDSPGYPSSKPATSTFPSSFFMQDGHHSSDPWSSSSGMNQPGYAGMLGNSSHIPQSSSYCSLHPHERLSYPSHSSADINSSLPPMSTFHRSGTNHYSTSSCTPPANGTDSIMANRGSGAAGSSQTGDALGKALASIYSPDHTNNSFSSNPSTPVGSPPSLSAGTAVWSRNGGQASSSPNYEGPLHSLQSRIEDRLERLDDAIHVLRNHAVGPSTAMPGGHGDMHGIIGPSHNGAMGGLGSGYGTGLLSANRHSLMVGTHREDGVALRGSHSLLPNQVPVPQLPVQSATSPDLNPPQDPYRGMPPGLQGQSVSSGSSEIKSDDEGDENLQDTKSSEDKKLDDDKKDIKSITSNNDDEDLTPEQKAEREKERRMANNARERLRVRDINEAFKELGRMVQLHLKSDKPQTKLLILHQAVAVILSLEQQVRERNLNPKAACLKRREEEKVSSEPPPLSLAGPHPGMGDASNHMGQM

effect of a mutation on the interaction | Variant
disrupting interaction | P77T

Variants of: B4
Settings: with ikzf3_human IKZF3, Q9UKT9
Sequence of ikzf3_human IKZF3, Q9UKT9 (Q9UKT9 whole entry): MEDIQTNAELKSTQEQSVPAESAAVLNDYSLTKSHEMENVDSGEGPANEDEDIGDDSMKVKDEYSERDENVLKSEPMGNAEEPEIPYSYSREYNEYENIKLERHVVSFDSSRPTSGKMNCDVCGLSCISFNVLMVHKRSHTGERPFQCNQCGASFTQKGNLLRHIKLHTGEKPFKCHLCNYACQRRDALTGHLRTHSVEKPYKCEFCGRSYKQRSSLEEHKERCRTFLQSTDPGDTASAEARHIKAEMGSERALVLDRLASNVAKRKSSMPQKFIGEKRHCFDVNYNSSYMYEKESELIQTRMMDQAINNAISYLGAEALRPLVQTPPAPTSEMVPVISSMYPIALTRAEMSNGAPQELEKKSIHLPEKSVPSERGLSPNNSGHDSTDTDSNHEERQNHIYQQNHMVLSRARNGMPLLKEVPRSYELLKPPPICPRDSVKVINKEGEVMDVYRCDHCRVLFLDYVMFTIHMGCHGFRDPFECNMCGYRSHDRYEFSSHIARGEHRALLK

effect of a mutation on the interaction | Variant
disrupting interaction | P77T

Variants of: B4
Settings: with itf2_human TCF4, P15884
Remark: another data set of the same source

effect of a mutation on the interaction | Variant
disrupting interaction | T508R
